# Experimental data taken from patent US20190224291A1 (GENOIMMUNE THERAPEUTICS, published 2019).
# Tests used:
# HLA-A0201 on T2 cells [1] = target: T1, HLA-A0201 on T2 cells (human); experiment: T2 cell peptide binding assay, flow cytometry with FITC anti-HLA-A0201, peptide 100 uM
# T1 construct: MHC class I on TAP-deficient T2 cells; also called HLA-A2; HLA-A0201 molecule
# Method: (§1) Cells were collected by centrifugation of the cell culture at 200 g for 5 minutes. The collected cells were washed twice with PBS, and then directly incubated with FITC-conjugated anti-HLA-A0201 monoclonal antibody at 4° C. for 30 minutes. The mean fluorescence intensity (MFI) was then detected and analyzed by flow cytometer (BD FACSJazz™) and its software. The fluorescence index (FI) was calculated by using the following formula:
# HLA-A0201 on T2 cells [2] = target: T1, HLA-A0201 on T2 cells; experiment: T2 cell peptide binding assay, fluorescence index = (MFI sample - MFI background)/MFI background, peptide 100 uM
# Method: as §1
Binder,Average fluorescence intensity (HLA-A0201 on T2 cells [1]),FI (HLA-A0201 on T2 cells [2])
"FMVDGSWSI (Synthetic peptide, purity >90%) [wild-type peptide FMVDGSWSI]",772,2.38
FLVDGFWSL (Synthetic peptide) [variant peptide FLVDGFWSL],664,1.91
FLVDGFWSV (Synthetic peptide) [variant peptide FLVDGFWSV],642,1.81
FLVDGFWSI (Synthetic peptide) [variant peptide FLVDGFWSI],701,2.07

# Further lines, results first:
Average fluorescence intensity (HLA-A0201 on T2 cells [1]),FI (HLA-A0201 on T2 cells [2]),Binder
748,2.28,FMVDGFWSL (Synthetic peptide) [variant peptide FMVDGFWSL]
721,2.16,FMVDGFWSV (Synthetic peptide) [variant peptide FMVDGFWSV]
